# The DeepSol protein solubility set
# Assay: soluble on expression in E. coli; label from the status in PepcDB or PDB records
row,Sequence,soluble on expression in E. coli
1,MSAKQVSKDEEKEALNLFLSTQTIIKEALRKLGYPGDMYELMKEPQRMLTVRIPVKMDNGSVKVFTGYRSQHNDAVGPTKGGVRFHPEVNEEKVKALSIWMTLKCGIANLPYGGGKGGIICDPRTMSFGELERLSRGYVRAISQIVGPTKDIPAPDVYTNSQIMAWMMDEYSRLREFDSPGFITGKPLVLGGSQGRETATAQGVTICIEEAVKKKGIKLQNARIIIQGFGNAGSFLAKFMHDAGAKVIGISDANGGLYNPDGLDIPYLLDKRDSFGMVTNLFTDVITNEELLEKDCDILVPAAISNQITAKNAHNIQASIVVERANGPTTIDATKILNERGVLLVPDILASAGGVTVSYFEWVQNNQGYYWSEEEVAEKLRSVMVSSFETIYQTAATHKVDMRLAAYMTGIRKSAEASRFRGWV,soluble
2,MPTITLRLELHNPTKVKQDMYERMTEVNTAFANWLLNHPELNQATSKIFKEFSPQRFPSAVVNQTIREVKSQKKNQKTKKFRTFWCCFNNQNVKVEKKGAFYTVSFPTLEKRIGVPVVTRPYQEAWLNRLLDGTAKQGAAKLYKKRTKWYLAIAITFEVKPRHETKVMGVDLGLRYIAVASVGTKSLFFKGSQCAFIRRRYAALRRTLGKAKKLQMIRKIGRKESRWMKDQNHKISRQIVNVALANGVGVIRMEALTGIRKRAKSAKEAGRSLHSWAFHQLQTMIAYKAEMAGIRVEWVKPTYTSQTCKCGHREKGNRNGIHFQCKQCGYTLHADLNGAINIAKAISGFVAEPSALVTGAPPIGVHRNPMGRGDDTPLNLGVVRTRNG,not soluble
3,REEDPHEGKIWFHGKISKQEAYNLLMTVGQVCSFLVRPSDNTPGDYSLYFRTNENIQRFKICPTPNNQFMMGGRYYNSIGDIIDHYRKEQIVEGYYLKEPVPMQDQ,soluble
4,MGSDKIHHHHHHTSEEREVFENQEGMHRLIPLIEAQTEEDLTPTMREYFAQIREYRKTPHVKGFGWFGNWTGKGNNAQNYLKMLPDSVDFVSLWGTRGYLSDEQKADLKFFQEVKGGKALLCWIIQDLGDQLTPKGLNATQYWVEEKGQGNFIEGVKAYANAICDSIEKYNLDGFDIDYEPGYGHSGTLANYQTISPSGNNKMQVFIETLSARLRPAGRMLVMDGQPDLLSTETSKLVDHYIYQAYWESSTSSVIYKINKPNLDDWERKTIITVEFEQGWKTGGITYYTSVRPELNSMEGNQILDYATLDLPSGKRIGGIGTYHMEYDYPNDPPYKWLRKALYFGNQVYPGKFD,not soluble
5,MAHHHHHHMPLLTRGQRRLLEYVAHDGGTKGLKRRRMEDVAPVLHKRKQKWTHKFTTKTASADASLAEVPLSSEVLEFLREYCPKVPRKLRQSQLRVISDLSGAFGGNSEKEEGETFTVKRVELKENAEVFAVVALAALQRRALWSGSTPQGASLFVLVETDADAAALAAHMGNTYKMTRTLVLDGSRFPTFPAVEKDDAATATTLAERTALVIASLQAFVTVDARSAIWKFIGAYAIWLKSSKPPALLQEMADGTRSELEENCAGSGGVVWDMPRWLLSLLHRESPSLHP,not soluble
6,MGSDKIHHHHHHMSDPTWDGSPQYRNELLRFMPADDLALLAPHMQRCALPVRMMLVTPNIPIEAVYFIEQGIGSVVASTASGHDAEIGFIGFEGMTGSALVMGDDRAAHACFVQLEGEAIRIDAAPFNAALAASPTLRLFLLHFVNTLHTQTGCTALVNARLKLEERLARWLLMCDDRVPGESLAMTHEFLSIMLGVRRPGVTVALQLLEGRALIRSRRGEIVIRDRAGLLELANGGYGQAEAEYARLIGEIMPG,not soluble
7,MSLSEYLGNKEAKQQMLKTIIKDLHQGKDFNQVKADFQNLIKDIDASEIANMEQALIGEGMNPEEITKLCDVHAAVFRDALEENEKPNLILGHPMYTIKHENEEIKKALEELDNYFSSNQMDAFKDRLSFFRDNLDRHYSKKENILFPYLERHNITGPPSVMWSVDDEIRDMGKILLTRVKEGDAGAIKTAYETMKNKISEMIFKEENILTPMLLETLTEEEWAEIKQEDEEFGVVFSKPHGNFWQPKAVTTKNISFEPTGEALSLDTGFLTLEQINTILTNIPIDITFVDKDDTVRYFSQGRERIFVRTKSIIGRKVQNCHPPDSVHMVEKILSDFKHGKHSTAEFWLELAEKFIHIRYFALRDEQGHYVGTMEVSQDVTGIRSLEGERRLLQYEDEGHHHHHH,soluble
8,MGSDKIHHHHHHMQTVQALLTAAKVDSAESPYDTIHIKVLYPAKNTDSNLEKNWGMLPVDAAQAPFPVVIFFNGFNCDAQKYQWLGIELAQTGLVVVMFNWVGESLPGLVSFTPGFEIEKRKREFYGTVPTASALPVILTKLAQLQSAGILSGTLDLEKIILGGHSEGGRVAMENANPNFFPQVVASFAYGSHTAGAVMLGYKPNTILPLPDTLPRLVIGGTHDGVIANSSAHFGLNTKDATTPVIRTFQEAIMGGRENSYLLLLRGANHFSIVDIVDSTLALPFKDIPATQPQEHFRLLLATIIHLFIDAHVRHQPEAFQKLEQLLIVTNPLIQSFERK,not soluble
9,MRNIMAGFLIFLSSAAYADINLYGPGGPHTALLDAAKLYAEKTGIIVNVHYGPQNKWNEDAKKNADILFGASEQSALAIIRDHKDSFSEKDIQPLYLRKSILLVKKGNPKNIRSIDDLTRPGIGVIVNDGGGTSNTSGTGVWEDIAGRKGNIETVAAIRKNIILYAPNSGTARKALENQPGADVWITWADWAASNPEIGDVVEIAPDYVIWRDMNITVRQDANDETRRFAEWLQTDEAAPAFKKYGWTRKGT,not soluble
10,GSPELGFSISGGVGGRGNPFRPDDDGIFVTRVQPEGPASKLLQPGDKIIQANGYSFINIEHGQAVSLLKTFQNTVELIIVREVGNGAKQEIRVRVEKDGGSGGVSSVPTNLEVVAATPTSLLISWDAYRELPVSYYRITYGETGGNSPVQEFTVPGSKSTATISGLKPGVDYTITVYAHYNYHYYSSPISINYRT,soluble
11,MAGSNSRKPVVGMKIRVALVSALLAVSGCTTLSGKAPTLAPTPASTPPTSGKVTKSIISAMDGGLIGGSIGNGLSDEEKRSALEAEYKALEYTTSGQKVAWKGDQASHYGEVVPAQPYRVGSQDCRQYTQTVFTGGAGVTARGTACRNADGSWTPLTLEHHHHHH,soluble
12,MKRRLDDQESPVYAAQQRRIPGSTEAFPHQHRVLAPAPPVYEAVSETMQSATGIQYSVTPSYQVSAMPQSSGSHGPAIAAVHSSHHHPTAVQPHGGQVVQSHAHPAPPVAPVQGQQQFQRLKVVFSSFSWVKKFIFSRKYWLQLVGCGGTTSNLRY,not soluble
13,MTNVLILGAAGQIARLAEQQFLANTTDNLTLYLRNSSRVADQQSDRVTIIDGDTTDEAKLTQAMTGQDVVYANLAGQNIKQQAETVLKAMHTSGLKRLIWISTLGIYDEVPGKFGQWNNATLGSYLTRYYAAAEVLENSDLDYTIIRPAWLTNKDEIDYEITQRHDPFKGTEVSRKSIAALVVKLTQDPTSNIRTSLGVNKPNTDGDKPAWY,not soluble
14,MEIVCEDFQKALTKIKLLRENANIIEETVQRSVREIVQNVRESRDEALSFYTKKFDGVEIKDVRVSEEEIKQASMFVESSFLEALQEAKKNIISYHEKQKRQSMFDCTSKGIIRGQIIRPLENIGVYVPGGTASYPSSVLMNVLPAKLAGVKKIVMVTPPRAGGIDPHILVAASLAGVDEIYMIGGAQAIAALAYGTESIPKVDKIVGPGNLYVALAKREVYGIVNIDMIAGPSEIVVIADETGNAKYIAADLLSQAEHDERATAICITTNIELAKEVEKEIERQLETLPRSEIARESINRNGAIFIVPSIDEALQLSNEIAPEHLELHIKEPMNALAYVKHAGSIFLGPYAPEPLGDYLAGPNHVLPTSGTARFFSPLSVDDFVKKSSFLSYTEGALRDVKHHIVELANKEGLHAHARAIQIRFGEEE,not soluble
15,HHHHHHGSAQLPSPTNGKKWEKVEQLSDEFDGNSIDTNKWYDYHPFWEGRAPSNFKKGDAFVSDGFLNLRSTLRKEPSSVQDPFKDIWVDAAAAVSKTKAQPGYYYEARFMASSLSMTSSFWFRVGQFSSIDVIEHIGDPSKENRQDDLPYQYHVNTHYYGKHAGLQPLGTEYKMPGRGRDNFYTYGFWWKSPNELLFYFNGKQVMRIVPRVPLDEELRMIFDTEVFPFATAGVANIGLPKPENLRDNSKNTMKVDWVRVYKLVDGTA,soluble
16,MTYRELVERQLAVRHADLELGLSRAREQEPFVIHVSDLLDKAGIEYAVRMDKDFQTTFHLEYPITNYDTFKRAVWQTLGAYYCVCNDGDGLEIASNRPDGYAVRIVFGDVPV,not soluble
17,GMAYGSSNPEDLAKNFTKDLYSGDTKSVMSYIDLSEAKSDEEKTFVSDKITQVVAENAAKAKRMGGVKDIQIEEKTINKDSAKIRVLVLFNNDNNQSSNVFLAKKDRKWLVLLK,soluble
18,MSKIRVLSVDDSALMRQIMTEIINSHSDMEMVATAPDPLVARDLIKKFNPDVLTLDVEMPRMDGLDFLEKLMRLRPMPVVMVSSLTGKGSEVTLRALELGAIDFVTKPQLGIREGMLAYSEMIAEKVRTAARARIAAHKPMAAPTTLKAGPLLSSEKLIAIGASTGGTEAIRHVLQPLPLSSPAVIITQHMPPGFTRSFAERLNKLCQISVKEAEDGERVLPGHAYIAPGDKHMELARSGANYQIKIHDGPPVNRHRPSVDVLFHSVAKHAGRNAVGVILTGMGNDGAAGMLAMYQAGAWTIAQNEASCVVFGMPREAINMGGVSEVVDLSQVSQQMLAKISAGQAIRI,soluble
19,MHHHHHHSSQEVGEHREITAEETAELLKNSHSVIITPGYGMAVAQAQYPVAEITEKLRARGINVRFGIHPVAGRLPGHMNVLLAEAKVPYDIVLEMDEINDDFADTDTVLVIGANDTVNPAAQDDPKSPIAGMPVLEVWKAQNVIVFKRSMNTGYAGVQNPLFFKENTHMLFGDAKASVDAILKAL,soluble
20,MSLIGLDLDSAPDLIQSVPAPRLRRQVWLRTASGQRLAYATSWWEASHVDEYLQNRSLPIWASLARLRTELYRDVRGIYYGNSEALQLGFGVDGPFWGRHYLFWHHGQPLTLIYEVFSPYLTKYLGPMQLSSRNGKILEHHHHHH,not soluble
21,MGSDKIHHHHHHMSKENIFDALKSGKIDYVRVEFVDILGNTKGRSLRRAEFENVINDNKGVDYPESLALMDYKDRPIKSRYEDIIAIPDLNTFVAIPYLERTARVLSFLAQPDGLPYPYCSRSILNKAIEKLKEAGYTLQVSFEPTFYLLNSALNPADYSKAFSLEGLLEQQNFLKLLIKYLEEIDIKVETINKHYGPGQYEVKLSQKPVLEAADSLISSREVIRDTAKMNNVIATFMPKPFKDYPSSSMDITLSLQTVDGKDIMYDPNDSKGIGLSKIAYNFISGILEHLPSILSIAAPTVNSYKRFKEVVTPNMPGIGSERHYIVRLPSYYKDTHQVEFRLADPLANPYILLASMIYAGLDGIERNLMANVNEYYGTLPQTLKESLSRLENDTYMKYNLGQDLISIYINIKNIEIEEYESQITEWERDYYLKAGW,not soluble
22,MRFKVVGKNIVVTEALKEAAVKKVGKLDKYFRRDAEATITMSVQKNRHIVEVTIPFEGGLLRAEEDSPDMYASIDKVIDSLERQIRRNKTKLEKKVHDGSLRFENIKFDDDEVEEEPKFEVVRTKKFAIKPMTVEEAILQMNLLGHQFFMFSNAETNEANVVYRRKDGNYGLIEPEF,not soluble
